Reference: the DeepSol protein solubility set

Assay: soluble on expression in E. coli; label from the status in PepcDB or PDB records

In the case of “MGSDKIHHHHHHMTLKIEHLTGGYTGVPVIKDINLEIKPGEALGLIGLNGAGKSTTIKHILGLLRPQKGKIILNDVVLTQQPTKFKREVAYIPETPILYPELTLKEHLELTMLSYKLDEKKAWERAHELLKMFRLDDKLEWLPIHFSKGMRQKVMIVSAFLADTSLLVIDEPFTGLDPLAVANLIDLIKQAIANNKMVLMTTHVLADAQQAISNYAVLNNGTIEIIGNLQDIREHYGLKPDDPFDKLYLALNREDHGNA”, the “soluble on expression in E. coli” value was “not soluble”.

With “VTDILREIGMIARALDSISNIEFKELSLTRGQYLYLVRVCENPGIIQEKIAELIKVDRTTAARAIKRLEEQGFIYRQEDASNKKIKRIYATEKGKNVYPIIVRENQHSNQVALQGLSEVEISQLADYLVRMRKNVSEDWEFVKKGNTRNY” the “soluble on expression in E. coli” value was “soluble”.

In the case of “MTILNHTLGFPRVGLRRELKKAQESYWAGNSTREELLAVGRELRARHWDQQKQAGIDLLPVGDFAWYDHVLTTSLLLGNVPARHQNKDGSVDIDTLFRIGRGRAPTGEPAAAAEMTKWFNTNYHYMVPEFVKGQQFKLTWTQLLDEVDEALALGHKVKPVLLGPITWLWLGKVKGEQFDRLSLLNDILPVYQQVLAELAKRGIEWVQIDEPALVLELPQAWLDAYKPAYDALQGQVKLLLTTYFEGVTPNLDTITALPVQGLHVDLVHGKDDVVELHKRLPSDWLLSAGLINGRNVWRADLTEKYVQIKDIVGKRDLWVASSCSLLHSPIDLSVETRLDAEVKSWFAFALQKCHELALLCDALNSGDTAALAEWSAPIQARRHSTRVHNPAVEKRLAAITAQDSQRANVYEVRAEAQRARFKLPAWPTTTIGSFPQTTEIRTLRLDFKKGNLDANNYRTGIAEHIRQAIVEQERLGLDVLVHGEAERNDMVEYFGEHLDGFVFTQNGWVQSYGSRCVKPPIVIGDVSRPAPITVEWAKYAQSMTDKPVKGMLTGPVTILCWSFPREDVSRETIAKQIALALRDEVADLEAAGIGIIQIDEPALREGLPLRRSDWDAYLQWGVEAFRINAAVAKDDTQIHTHMCYCEFNDIMDSIAALDADVITIETSRSDMELLESFEEFDYPNEIGPGVYDIHSPNVPSVEWIEALLKKAAKRIPAERLWVNPDCGLKTRGWPETRAALANMVQAAQNLRRG”, the “soluble on expression in E. coli” value was “not soluble”.

For “MDRTRIVRRWRRNMDVADDAEYVEMLATLSEGSVRRNFNPYTDIDWESPEFAVTDNDPRWILPATDPLGRHPWYQAQSRERQIEIGMWRQANVAKVGLHFESILIRGLMNYTFWMPNGSPEYRYCLHESVEECNHTMMFQEMVNRVGADVPGLPRRLRWVSPLVPLVAGPLPVAFFIGVLAGEEPIDHTQKNVLREGKSLHPIMERVMSIHVAEEARHISFAHEYLRKRLPRLTRMQRFWISLYFPLTMRSLCNAIVVPPKAFWEEFDIPREVKKELFFGSPESRKWLCDMFADARMLAHDTGLMNPIARLVWRLCKIDGKPSRYRSEPQRQHLAAAPAA”, the “soluble on expression in E. coli” value was “not soluble”.

In the case of “MKVKIAFTTTDRIHVNAHFGWAREIDIYEISDHGYEFLETLKFEGDLKEDGSEDKITPKLEALNGCTIVYVVAIGGSAAARLIKGGVTPVKAKSEEEKIEEVLTKLVKTLKGNPPPWLRKALQPKTLNFADEVENEATV”, the “soluble on expression in E. coli” value was “not soluble”.

In the case of “PSRPVRPNNRCFSCNKKVGVMGFKCKCGSTFCGSHRYPEKHECSFDFKEVG”, the “soluble on expression in E. coli” value was “soluble”.

For “VLAGIDALESSGFAAVAGKRIALVTNRSGVDRLGRRTIDLLAHAPGARLVAIFAPEHGLGTDVDAPFGDAIDADTNVVVHSLYGSRRRIAPEALSNVDVLVFDIQDAGVRFFTYLATLGYVLEAAAAAHVPVVVLDRPNPLGGDVVGGPVSDADIGSFTNYYPLPLAPGMTIGELAKLFDDRLRIGADLVVVPMENYRRWMRYGDTGLGGLPPSPNLRDAAALSLYPDIGLVEGADVSVGRGTATPFGVLGAPWIDGRALADDLRAMHLSATFTPARFVPTEGPYRGALCEGVRIERLPGPVRPGRIGLAVALALHRRYPDRFRIDAIRASVGSRAVADMLADGRPLDEIEQVVDTQNAAFSRERAAYLLY”, the “soluble on expression in E. coli” value was “not soluble”.

For “MAKVYGSLIDNETRCTHYYSSLDVIAIKFKCCNKYYPCYKCHNEHVSHTIERWAENEFDEKAIMCGVCKHEMRIRDYMMVEMCPRCKAHFNSRCKFHYHLYFEVLEHHHHHH”, the “soluble on expression in E. coli” value was “not soluble”.

In the case of “MGLIIYHKGGRKMKKNILIVGGGPEITICYDLINNSTEYNFFSVSEIPTMYPELFVETIETSFRNFGKTIEQIKELKYSIDAVACWDEALTHIADDISKELGLNPISSLDSQSFRFKDRMRMVCEAGGLKMPKYKIINQFSDTNKIINWKYPLIVKPTSFLASIGVKKVYNFSELQQAVSQMLNVKFPVYIASGVYELGELYNLEPRVLVEEFIDGEEYSLESVVRNGIYTPLGITKKIVDEKLFMDEIGHIFPSNLNKEEKSRVYSWAEKLHQILQLNHITTHTEFRIGRNGDIILIEIGARIGGDCIPNLMKNSFIVKGFDFYNTYLKARLGLQEELNTDTNKFSGIVFFRLNPENYGKIFNGVSYDAPKTSLIFEEKIYKKEGTVLPNPINWSNERVGYVCLENKEYAVLEKEMKEILKSLSIE”, the “soluble on expression in E. coli” value was “not soluble”.

With “MAGDRKRGFIRPDEDYALIEPQRWGLPDYGDSKEKKAKQTAFNYDPSWVPNFDEPEEEQALELTEEQIELIKQGAYQEGLYQGQEAGFKQGYDKGKEEGLQAGHAEGLELGKAEGVSAGQEFIQQQVEVFMNLANQFAQPLELMNAQVEKQLVDMVLCLVKEVVHVEVQTNPQIILDTVKQSVEALPISGHPITLHLNPEDVAIIRSAYGEEDLDCRNWTLVSEPSLNRGDVQIEAGESSINYRMEERIKSVLHSFCGANRHQEGELEHHHHHH” the “soluble on expression in E. coli” value was “soluble”.

In the case of “MAHHHHHHMYLHVMKVACTPDERHCENSVNPSSSSTLPSATTSSSCPVEHGVPDEESRFTRLYEAAVENESALRVGNYTRRLLFDEFCATSDATRQASQPTCRMLRQRHPALRSLSLSVEGMHSAGADRTSATQLPADSTMSAAESLQAYLSPALSAWRCASQEPFASSAQVAAAAPLPTSAVASDVRPRSPLPLHIDESDAPVDEGAHGEGLEALYMDVFDQEGPANNHEVAVNAAYTREREAADRAALLSAQQATMAGCPCGFTARGSTPSADVSLSNASSLLPEEDDISLVLQPVLGGVAQRRGRGIRVHLESEPSVTTSSSMVDASFLQAGRETTTLTCAVCELSGVVGDPHRTCIDAVELQEEDELHPCGTCGALVHSYCACPGTTADTHYCCNPCCPGGGTV”, the “soluble on expression in E. coli” value was “not soluble”.

In the case of “QGQPLANFEGGQPMEALQQWTAAVVKAVEGKLPGITGDDAEAEPAEDPRFEPATEALNAGDFDAAIAVYEEILRHEPKNQMALQARDNARLLSRLKDADRSVDPIAVADADLQDVDKAFAAADAEITTGKVEEAFDRLIELLPNEKVRTRLLELYSVFEPSDSRVQAARSKMASKLF”, the “soluble on expression in E. coli” value was “not soluble”.

In the case of “SGNTSSERTGMGQEKANRRDSRGTKEGDRPKILMDSPEDADIFHGEDLKAPLEKEEFIEWRPDLEGSEKTDTLDRPTVFRWTGAGKEVYISGSFNNWTNKIPLIRSQNNFVAIVDLPEGEHQYKFYVDGLWTHDPTEPVVTNQLGTVNNIIQVKKTDFEVFDALMVDSQKCSDMSDLSSSPPGPYHQDAYTPKQEEKFKSPPILPPHLLQVILNKDTGISCDPALLPEPNHVMLNHLYALSIKDGVMVLSATHRYKKKYVTTLLYKPI”, the “soluble on expression in E. coli” value was “not soluble”.

With “SKRKARRGAGMPDYETVALVLQGGGALGAYQAGVYEGLHAAGIRPNWLAGISIGGINAAIIAGAPVDERVGRLRGFWEAICRPTGFVGLPWGDAWAALFANAPFGFGSNQSNGQLAAFNALTRGQPGFFEPRFPPPYLVQGGGAAATSFYDTTPLLQTLRDYVDFDLLNRGDVRVSLGAVNVRTGNFAYFDSRETVIRPEHVMASGALPPGFPAIEIDGEFYWDGGLVSNTPLTKVLAVHPMRDTLAFQVDLWPARGPLPTSLEEVAERQKDIQYSSRTRIVTDTFRRQLKLRRSLQRVLDRLPPQVRSSRELAQIRREACTPLVNVVNLIYEANQFERHSKDYEFNTESMREHWRFGLADIERTLAQPGV” the “soluble on expression in E. coli” value was “not soluble”.

For “MGSDKIHHHHHHMKSRFLLKIFIFLAVFGVDSVRAADCTEKTFKTGTVCVCSLDSCDEIPPLDITMGQAALYTTSHTGARLHRDVIYATDTEPFGTLHMTIDSSKKYQTIQGFGSTFSDASGANLKSLPDKLSDLIMKQYFSDTGLNLQFGRVPIASTDFSGRVYSYNDVANDYSMQNFNLTKEDFQWKIPYIKNAQKYNPNLKLFAAPWAAPGWLKTTKEMTGPGALNGKAGDNYHQAYAKYFVRFLEEYGKSGISFWGLSTQNQPTLGSDKKNKIQSTLFTAETQRDFIKTDLGPALAASSSGKDVKLLILDDNRGNLPKWADTVLNDMDAAKYVGGIGVHAYQDGETDNHLDETHKKHPNFFILGTEASEGYGSKDTHVDYGNWDRAADTASDILDNMNNWMTGWTERNLILDALGGPSWVSDYTDAPVIAFPAMAQFYKQPMFYAIAHFSHFIKPGAVRIDHSLNVIELEVETTAFLNPDGSKVIVMLNKGSLVSTEHTVVVQDAADSRNHYHFTLPHRAITTLYIQTSQF”, the “soluble on expression in E. coli” value was “not soluble”.

In the case of “GEGITLNQVAVGCECQDCLWAPTGGCCPGASLHKFAYNDQGQVRLRAGLPIYECNSRCRCGYDCPNRVVQKGIRYDLCIFRTDDGRGWGVRTLEKIRKNSFVMEYVGEIITSEEAERRGQIYDRQGATYLFDLDYVEDVYTVDAAYYGNISHFVNHSCDPNLQVYNVFIDNLDERLPRIAFFATRTIRAGEELTFDYNMQVDPVDMESTRMDSNFGLAGLPGSPKKRVRIECKCGTESCRKYLF”, the “soluble on expression in E. coli” value was “not soluble”.

For “ETRECKEALAKSEMNVNMKCQLPNFTAETPIQNVILHEHHIFLGATNYIYVLNEEDLQKVAEYKTGPVLEHPDCFPCQDCSSKANLSGGVWKDNINMALVVDTYYDDQLISCGSVNRGTCQRHVFPHNHTADIQSEVHCIFSPQIEEPSQCPDCVVSALGAKVLSSVKDRFINFFVGNTINSSYFPDHPLHSISVRRLKETKDGFMFLTDQSYIDVLPEFRDSYPIKYVHAFESNNFIYFLTVQRETLDAQTFHTRIIRFCSINSGLHSYMEMPLECILTEKRKKRSTKKEVFNILQAAYVSKPGAQLARQIGASLNDDILFAVFAQSKPDSAEPMDRSAMCAFPIKYVNDFFNKIVNKNNVRCLQHFYGPNHEHCFNRTLLRNSSGCEARRDEYRTEFTTALQRVDLFMGQFSEVLLTSISTFIKGDLTIANLGTSEGRFMQVVVSRSGPSTPHVNFLLDSHPVSPEVIVEHTLNQNGYTLVITGKKITKIPLNGLGCRHFQSCSQCLSAPPFVQCGWCHDKCVRSEECLSGTWTQQICLPAIYKVFPNSAPLEGGTRLTICGWDFGFRRNNKFDLKKTRVLLGNESCTLTLSESTMNTLKCTVGPAMNKHFNMSIIISNGHGTTQYSTFSYVDPVITSISPKYGPMAGGTLLTLTGNYLNSGNSRHISIGGKTCTLKSVSNSILECYTPAQTISTEFAVKLKIDLANRETSIFSYREDLHHHHHH”, the “soluble on expression in E. coli” value was “soluble”.
